Laboratory results: patent US20040229289A1, “Antigen binding peptides (abtides) from peptide libraries” (Cytogen Corporation, priority 1994, published 2004)
Where no end group is shown, it is not given here.

T1: biotinylated 7E11-9.5 mimetope peptide (not fully specified (N-terminus); printed as Biotin-LYANPGMYSRLHSPA-NH2)
T1 peptide: LYANPGMYSRLHSPA-NH2

T2: mimetope peptide 7E11-9.5 (not fully specified)
T2 peptide: LYANPGMYSRLHSPA

T3: PEM peptide (human)
T3 peptide: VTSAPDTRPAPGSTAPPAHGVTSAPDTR

B1: 7E11-C5 abtide clone 17 (peptide)
peptide: DLSRNLDFGRFLLYNAYVPGFTPTFISLTAEHLSSPKG
notes: tested afterwards as synthetic 38-residue peptide
B2: 7E11-C5 abtide clone 14 (peptide)
peptide: GIINANDPLPFWFMSPYTPGPAPIDINASRALVSNESG
notes: tested afterwards as synthetic 38-residue peptide (dot blot, ELISA, sandwich assay)
B3: 7E11-C5 abtide clone 15 (peptide)
peptide: CGRAYCLSGNYNIFGALFPGVSTPYADVGHDDAQSWRR
notes: as for B1
B4: MP-1 (peptide)
peptide: GAPVWRGNPRWRGPGGFKWPGCGNGPMCNTFTPARGGSRNNGP
notes: eluted with excess PEM peptide; also called MPI; PEM abtide MP-1
B5: MP-2 (peptide)
peptide: GSASSCFPNFTARGVTVGFFGCGSPAHPAAPRVLNPATDFPAP
notes: eluted with excess PEM peptide
B6: MA-13 (peptide)
peptide: NTCWTDLFWHGLPGGDLPRDGCGLPSELTTHPSRERRDASEN
B7: MP-22 (peptide)
peptide: VFRRTARSSRPIGATVFPWYGCGNSNDETLPHHDSPPSFFLGA
notes: as for B5
B8: P24 (peptide)
peptide: ILGWPFLTGLGDSTVHPRGRKGTDPS
notes: as for B5
B9: P49 (peptide)
peptide: SIPSFSMWLNQLGSAALPSKGNSQDRSD
notes: as for B5
B10: P6 (peptide)
peptide: RAELVNWYEWFHVTAEAETPVINSHNMT
notes: as for B5
B11: P26 (peptide)
peptide: SRDDIFTGGPLVLFRGSKTSNHDVHSMR
notes: as for B5
B12: V22 (peptide)
peptide: GSFESARGVTCIGNHSIGAHGCGPLRSYASFNRGSGRRH
notes: acid eluted
B13: MA-8 (peptide)
peptide: EEKQGGRWSTMMPRPWCHEGGCGFLYYDAMTKPKTPPIMRTAA
notes: acid eluted
B14: MA-21 (peptide)
peptide: LPRPFDDASWKLRAVKESPDGCGFGSPLLFPPYSGLPTFSSCD
notes: acid eluted
B15: MP-30 (peptide)
peptide: GRGSDMREHWPWSMPLILDQHANDPSPRAQSHYYSHPF
notes: as for B5
B16: MP-20 (peptide)
peptide: IDWNWLERGQHNRGYLHSFPDAKSQPTRGPRVAPNGND
notes: as for B5

Molecular target: T1, biotinylated 7E11-9.5 mimetope peptide
Experiment: dot blot, synthetic abtide spotted on nitrocellulose, biotinylated mimetope in solution
Details: not given
Description: In some cases, these abtides were used in a dot blot experiment. In those cases, 1 μL of a 1 mg/mL solution of the 38-residue abtides was spotted onto nitrocellulose (0.2 μm or 0.45 μm, Schleicher & Schuell, Keene, NH) strips or circles. After drying (about 1/2 hour), the nitrocellulose was blocked for 1 hour in a solution of 1% BSA in PBS. The nitrocellulose was then allowed to incubate in approximately 5 mL of a solution of 0.1 mg/mL of a biotinylated 7E11-9.5 mimetope peptide (biotin-[…]). This mimetope peptide was one of those described in Section 6.1.1 above that were synthesized based upon the nine peptides that were identified in the screening of Section 6.1.1 above. After an hour, the nitrocellulose was washed approximately 5 times with a solution of 1% BSA in PBS. A 1:2000 dilution of Extravidin-Alkaline Phosphatase (4,250 units/mL) (Sigma, St. Louis, Mo.) in PBS was then added and allowed to incubate for 1 hour, after which the nitrocellulose was again washed extensively. Finally, a solution of 5-bromo-4-chloro-3-indolyl phosphate (0.15 mg/mL) and nitro blue tetrazolium (0.3 mg/mL) (Sigma, St Louis, Mo.) (BCIP/NBT) was added as an enzyme substrate. Color was allowed to develop […].
(§1) In FIG. 4, the 7E11-C5 abtides known as clone 14, clone 17, clone 15, clone 16, and clone 13 were tested for their ability to bind the biotinylated 7E11-9.5 mimetope peptide. Also tested, as a positive control, was the monoclonal antibody 7E11-C5. 7E11-C5 was spotted onto the region marked 351 in FIG. 4.

Binding result, binds:
B1
B2
B3

Molecular target: T2, mimetope peptide 7E11-9.5
Experiment: phage panning of TSAR-9 library on plate-bound 7E11-9.5 peptide
Details: not given
Description: Next, the mimetope peptide was used to isolate abtides from a peptide library. Fifty to one hundred microliters of the solution of this peptide was used to coat the wells of a 96-well plate, the wells were blocked with 0.5% BSA in PBS, and the wells were used for screening. An aliquot of the TSAR-9 random phage library (containing approximately 3×10¹⁰ phage particles) was used as in the initial screening, and 4 rounds of screening were performed. After the first two rounds, the phage were amplified. Two more rounds of screening were then performed. By this procedure, phage from the TSAR-9 library that expressed peptides capable of binding to the 7E11-9.5 mimetope peptide were identified and isolated. The peptides containing the binding domains of these phage are abtides and were discovered to mimic the binding specificities of monoclonal antibody 7E11-C5. These abtides are termed “7E11-C5 abtides.”

Binding result, binds:
B1
B2
B3

Molecular target: T3, PEM peptide
Experiment: phage panning on PEM peptide, DC43 library, eluted with excess PEM peptide
Details: not given
Description: (§2) A peptide comprising this sequence was synthesized and used to isolate abtides from TSAR peptide libraries by methods analogous to those described above. In these experiments, the specific TSAR libraries used were R26, D38 and DC43. See FIGS. 10-12 for description of these libraries. Phage bound to PEM were eluted by either standard acid elution methods, stringent acid elution methods where phage were incubated with the PEM peptide for only 10 minutes prior to washing and elution, or were eluted using excess PEM peptide. Phage from each library were isolated that express peptides capable of binding to PEM.

Binding result, binds:
B4
B5
B6
B7

Molecular target: T3, PEM peptide
Experiment: phage panning on PEM peptide, R26 library, eluted with excess PEM peptide
Details: not given
Description: as §2

Binding result, binds:
B8
B9
B10
B11

Molecular target: T3, PEM peptide
Experiment: phage panning on PEM peptide, DC43 library, acid eluted
Details: not given
Description: as §2

Binding result, binds:
B12
B13
B14

Test system: biotinylated 7E11-9.5 mimetope peptide
Experiment: Dot blot: spotted 7E11-C5 abtides probed with biotinylated mimetope peptide
Format: binding
Details: 1 μL of 1 mg/mL abtide spotted on nitrocellulose; 0.1 mg/mL mimetope; FIG. 4
Description: In some cases, these abtides were used in a dot blot experiment. In those cases, 1 μL of a 1 mg/mL solution of the 38-residue abtides was spotted onto nitrocellulose (0.2 μm or 0.45 μm, Schleicher & Schuell, Keene, NH) strips or circles. After drying (about 1/2 hour), the nitrocellulose was blocked for 1 hour in a solution of 1% BSA in PBS. The nitrocellulose was then allowed to incubate in approximately 5 mL of a solution of 0.1 mg/mL of a biotinylated 7E11-9.5 mimetope peptide (biotin-LYANPGMYSRLHSPA). This mimetope peptide was one of those described in Section 6.1.1 above that were synthesized based upon the nine peptides that were identified in the screening of Section 6.1.1 above. After an hour, the nitrocellulose was washed approximately 5 times with a solution of 1% BSA in PBS. A 1:2000 dilution of Extravidin-Alkaline Phosphatase (4,250 units/mL) (Sigma, St. Louis, Mo.) in PBS was then added and allowed to incubate for 1 hour, after which the nitrocellulose was again washed extensively. Finally, a solution of 5-bromo-4-chloro-3-indolyl phosphate (0.15 mg/mL) and nitro blue tetrazolium (0.3 mg/mL) (Sigma, St Louis, Mo.) (BCIP/NBT) was added as an enzyme substrate. Color was allowed to develop […].
as §1

Binding of biotinylated 7E11-9.5 mimetope peptide in dot blot, bound the mimetope:
DLSRNLDFGRFLLYNAYVPGFTPTFISLTAEHLSSPKG [clone 17]
CGRAYCLSGNYNIFGALFPGVSTPYADVGHDDAQSWRR [clone 15]

Molecular target: T3, PEM peptide
Experiment: phage panning on PEM peptide, D38 library, eluted with excess PEM peptide
Details: not given
Description: as §2

Binding result, binds:
B15
B16
